The source of these data is paper PMC12337650 (iScience, 2025).

This series concerns the molecule itself. The series can be described thus: cross-linking.

B1: hIRE1α(CD) (residues 469–977) (domain or fragment)
chain: HQQQQLQHQQFQKELEKIQLLQQQQQQLPFHPPGDTAQDGELLDTSGPYSESSGTSSPSTSPRASNHSLCSGSSASKAGSSPSLEQDDGDEETSVVIVGKISFCPKDVLGHGAEGTIVYRGMFDNRDVAVKRILPECFSFADREVQLLRESDEHPNVIRYFCTEKDRQFQYIAIELCAATLQEYVEQKDFAHLGLEPITLLQQTTSGLAHLHSLNIVHRDLKPHNILISMPNAHGKIKAMISDFGLCKKLAVGRHSFSRRSGVPGTEGWIAPEMLSEDCKENPTYTVDIFSAGCVFYYVISEGSHPFGKSLQRQANILLGACSLDCLHPEKHEDVIARELIEKMIAMDPQKRPSAKHVLKHPFFWSLEKQLQFFQDVSDRIEKESLDGPIVKQLERGGRAVVKMDWRENITVPLQTDLRKFRTYKGGSVRDLLRAMRNKKHHYRELPAEVRETLGSLPDDFVCYFTSRFPHLLAHTYRAMELCSHERLFQPYYFHEPPEPQPPVTPDAL
As to B1, the binding result is on record as “binds”.
